Source: paper PMC6826200, “An oligomeric state‐dependent switch in the ER enzyme FICD regulates AMPylation and deAMPylation of BiP” (The EMBO Journal, 2019)

Biological target: the molecule itself
Assay: AUC; fluorescence-detected sedimentation velocity; Oregon Green-labelled FICD from 1.6 μM to 31 pM; 50 mM HEPES-KOH pH 7.4, 150 mM KCl, 10 mM MgCl2, 1 mM CaCl2, 0.3 mM TCEP, 0.1% Tween-20, 0.15 mg/ml BSA; 45,000 rpm, 20°C; monomer-dimer isotherm of signal-averaged s; dimer to monomers

B1: Oregon Green-labelled FICD^NC (wild-type FICD carrying an N-terminal cysteine) (domain or fragment, human)
chain: CLEARAALNQALEMKRQGKREKAQKLFMHALKMDPDFVDALTEFGIFSEEDKDIIQADYLYTRALTISPYHEKALVNRDRTLPLVEEIDQRYFSIIDSKVKKVMSIPKGNSALRRVMEETYYHHIYHTVAIEGNTLTLSEIRHILETRYAVPGKSLEEQNEVIGMHAAMKYINTTLVSRIGSVTISDVLEIHRRVLGYVDPVEAGRFRTTQVLVGHHIPPHPQDVEKQMQEFVQWLNSEEAMNLHPVEFAALAHYKLVYIHPFIDGNGRTSRLLMNLILMQAGYPPITIRKEQRSDYYHVLEAANEGDVRPFIRFIAKCTETTLDTLLFATTEYSVALPEAQP
modifications: Oregon Green 488 on the N-terminal cysteine (labelling efficiency 74%)
notes: N-terminal cysteine added for site-specific labelling; FICD (HYPE), human, residues 104-445; also called UK 2339; source: E. coli, purified, labelled with Oregon Green 488-iodoacetamide, SEC
  Kd: 1.2 nM
